# Substitutions are numbered along the chain they refer to.
# T1: Ala mutant of TA0096, SEQ ID NO: 34
# T1 peptide: EENMDDQAMQDEMEIGY
# T2: Ala mutant of TA0096, SEQ ID NO: 30
# T2 peptide: EENADDQWMQDEMEIGY
# T3: Ala mutant having 3-amino acid substitution, SEQ ID NO: 47
# T3 peptide: EENMDDQWMAAAMEIGY
# T4: Ala mutant of TA0096, SEQ ID NO: 42
# T4 peptide: EENMDDQWMQDEMEIAY
# T5: Ala mutant of TA0096, SEQ ID NO: 39
# T5 peptide: EENMDDQWMQDEAEIGY
# T6: Ala mutant of TA0096, SEQ ID NO: 43
# T6 peptide: EENMDDQWMQDEMEIGA
# T7: Ala mutant of TA0096, SEQ ID NO: 41
# T7 peptide: EENMDDQWMQDEMEAGY
# T8: Ala mutant of TA0096, SEQ ID NO: 38
# T8 peptide: EENMDDQWMQDAMEIGY
# T9: Ala mutant having 3-amino acid substitution, SEQ ID NO: 48
# T9 peptide: EENMDDQWMQDEAAAGY
# T10: Ala mutant of TA0096, SEQ ID NO: 29
# T10 peptide: EEAMDDQWMQDEMEIGY
# T11: Ala mutant of TA0096, SEQ ID NO: 40
# T11 peptide: EENMDDQWMQDEMAIGY
# T12: TA0096 (peptide antigen corresponding to positions 340 to 356 of PAD4)
# T12 peptide: EENMDDQWMQDEMEIGY
# T13: Ala mutant of TA0096, SEQ ID NO: 28
# T13 peptide: EANMDDQWMQDEMEIGY
# T14: Ala mutant of TA0096, SEQ ID NO: 36
# T14 peptide: EENMDDQWMADEMEIGY
# T15: Ala mutant having 3-amino acid substitution, SEQ ID NO: 44
# T15 peptide: AAAMDDQWMQDEMEIGY
# T16: Ala mutant having 3-amino acid substitution, SEQ ID NO: 45
# T16 peptide: EENAAAQWMQDEMEIGY
# T17: Ala mutant of TA0096, SEQ ID NO: 37
# T17 peptide: EENMDDQWMQAEMEIGY
# T18: Ala mutant of TA0096, SEQ ID NO: 31
# T18 peptide: EENMADQWMQDEMEIGY
# T19: Ala mutant of TA0096, SEQ ID NO: 27
# T19 peptide: AENMDDQWMQDEMEIGY
# T20: Ala mutant having 3-amino acid substitution, SEQ ID NO: 49
# T20 peptide: EENMDDQWMQDEMEIAA
# T21: Ala mutant of TA0096, SEQ ID NO: 33
# T21 peptide: EENMDDAWMQDEMEIGY
# T22: Ala mutant of TA0096, SEQ ID NO: 35
# T22 peptide: EENMDDQWAQDEMEIGY
# B1: A11 (antibody, V domains shown)
# VH: AVTLDESGGGLQTPGGALSLVCKASGFDFSSYGMGWMRQAPGKGLEYVAAIRNDGSWTGYGAAVKGHATISRDNGQSTVRLQLNNLRAEDTGTYYCAKTTGSRGGSIDAWGHGTEVIVS
# VL: ASTQPSSVSANLGGTVEITCSGGGRYYYGWYQQKSPGSAPVTVIYANDKRPSDIPSRFSGSKSGSTGTLTITGVQAEDEAVYFCGSAETSSYVFGAGTTLTVL
# notes: Chicken variable regions in a mouse chimeric antibody (IgG1); also called anti-PAD4 antibody A11
# B2: G8 (antibody, V domains shown)
# VH: B1 VH with D28T, S31T, G33A, H67R, S71L, N84S, T99Y, R103S, D108G
# VL: ASTQPSSVSANLGGTVEITCSGGNRNYYYGWYQQKSPGSAPVTLIYANDKRPSNIPSRFSGSKSGSTGTLTITGVQAEDEAVYFCGTADTGKYVFGAGTTLTVL
# notes: Chicken variable regions in a mouse chimeric antibody (IgG1); also called anti-PAD4 antibody G8
# B3: G6 (antibody, V domains shown)
# VH: B1 VH with D28T, G35E, M37V, H67R, N74D, V79L, G92A, R103S
# VL: B1 VL with G14E, E17K, R25N, V43L, D53N, S86T, E88D, S90G, S91K
# notes: Chicken variable regions in a mouse chimeric antibody (IgG1); also called anti-PAD4 antibody G6
# B4: E9 (antibody, V domains shown)
# VH: B1 VH with A17T, A24G, D28T, A62S, H67R, G92A, T100S, R103S, I107V
# VL: B1 VL
# notes: Chicken variable regions in a mouse chimeric antibody (IgG1); also called anti-PAD4 antibody E9
# B5: G9 (antibody, V domains shown)
# VH: B1 VH with D28T, S31T, G33A, H67R, S71L, N84S, T99Y, R103S, D108G
# VL: B1 VL with S2V, S6A
# notes: Chicken variable regions in a mouse chimeric antibody (IgG1); also called anti-PAD4 antibody G9
# Biological target: full-length recombinant human or mouse PAD4 (species used for Table 7 and FIG. 7 not stated)
# Assay: cell-based or functional assay
row,Relative citrullination activity,Binder
1,64 relative to PBS = 100,B1
2,63 relative to PBS = 100,B2
3,69 relative to PBS = 100,B3
4,59 relative to PBS = 100,B4
5,68 relative to PBS = 100,B5

# Biological target: T23, full-length recombinant human PAD4 (human, UniProt Q9UM07 1-663)
# T23 construct: Full-length recombinant; also called peptidylarginine deiminase 4
# Assay: ELISA, coated human PAD4; antibody 0.0039063 ug/mL
# T23 sequence (Q9UM07 whole entry): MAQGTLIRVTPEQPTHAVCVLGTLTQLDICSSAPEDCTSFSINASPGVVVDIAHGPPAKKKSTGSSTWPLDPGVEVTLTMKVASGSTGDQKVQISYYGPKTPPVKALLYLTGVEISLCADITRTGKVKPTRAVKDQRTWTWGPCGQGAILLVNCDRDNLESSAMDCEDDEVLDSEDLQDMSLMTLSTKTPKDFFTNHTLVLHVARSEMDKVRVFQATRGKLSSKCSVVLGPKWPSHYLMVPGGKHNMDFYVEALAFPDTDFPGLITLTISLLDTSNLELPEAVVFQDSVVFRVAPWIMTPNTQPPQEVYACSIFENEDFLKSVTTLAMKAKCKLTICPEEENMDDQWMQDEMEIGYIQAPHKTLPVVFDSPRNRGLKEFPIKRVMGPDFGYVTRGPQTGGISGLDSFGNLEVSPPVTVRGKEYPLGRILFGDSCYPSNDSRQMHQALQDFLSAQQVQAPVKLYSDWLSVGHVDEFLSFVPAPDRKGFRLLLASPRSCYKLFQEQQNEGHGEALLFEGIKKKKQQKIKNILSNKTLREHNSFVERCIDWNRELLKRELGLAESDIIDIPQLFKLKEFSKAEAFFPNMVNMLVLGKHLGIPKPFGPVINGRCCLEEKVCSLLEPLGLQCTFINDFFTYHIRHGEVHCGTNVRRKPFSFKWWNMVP
row,OD 490/630 nm,Binder
1,1.31,B1
2,1.34,B2
3,1.16,B3
4,1.36,B4
5,1.36,B5

# Biological target: T1, Ala mutant of TA0096, SEQ ID NO: 34
# Assay: ELISA, alanine scan (position 347)
# Procedure: The epitope of each of A11 etc. was identified by alanine scan. Specifically, the following procedures (i) to (iii) were carried out. (i) Each amino acid residue of the antigen sequence (SEQ ID NO: 1) was replaced by another amino acid one by one, and 17 different Ala mutants (SEQ ID Nos: 27 to 43) were synthesized. (ii) The reactivity of each of the Ala mutants toward a test antibody was evaluated (ELISA).
# The “96 pAb” designated in the table refers to antiserum as obtained by immunizing a chicken with TA0096 (SEQ ID NO: 1). The 96 pAb, which is an anti-PAD4 polyclonal antibody, can substantially keep the affinity toward PAD4 even if any of single amino acids of PAD4 is replaced.
row,binding result,Binder
1,no binding,B1
2,no binding,B2
3,no binding,B3
4,no binding,B4
5,no binding,B5

# Biological target: T2, Ala mutant of TA0096, SEQ ID NO: 30
# Assay: ELISA, coated peptide
row,OD 490/630 nm,Binder
1,2.03,B1
2,1.93,B2
3,1.92,B3
4,1.91,B4
5,2.03,B5

# Biological target: T3, Ala mutant having 3-amino acid …
# Assay: ELISA, coated peptide
row,OD 490/630 nm,Binder
1,1.25,B1
2,1.86,B2
3,1.73,B3
4,1.34,B4
5,1.85,B5

# Biological target: T4, Ala mutant of TA0096, SEQ ID NO: 42
# Assay: ELISA, coated peptide
row,OD 490/630 nm,Binder
1,1.88,B1
2,1.86,B2
3,1.87,B3
4,1.83,B4
5,1.85,B5

# Biological target: T5, Ala mutant of TA0096, SEQ ID NO: 39
# Assay: ELISA, coated peptide
row,OD 490/630 nm,Binder
1,1.89,B1
2,1.88,B2
3,1.83,B3
4,1.77,B4
5,1.87,B5

# Biological target: T6, Ala mutant of TA0096, SEQ ID NO: 43
# Assay: ELISA, coated peptide
row,OD 490/630 nm,Binder
1,1.92,B1
2,1.92,B2
3,1.87,B3
4,1.88,B4
5,1.88,B5

# Biological target: T7, Ala mutant of TA0096, SEQ ID NO: 41
# Assay: ELISA, coated peptide
row,OD 490/630 nm,Binder
1,1.85,B1
2,1.85,B2
3,1.87,B3
4,1.8,B4
5,1.89,B5

# Biological target: T8, Ala mutant of TA0096, SEQ ID NO: 38
# Assay: ELISA, coated peptide
row,OD 490/630 nm,Binder
1,1.89,B1
2,1.91,B2
3,1.92,B3
4,1.91,B4
5,1.96,B5

# Biological target: T9, Ala mutant having 3-amino acid …
# Assay: ELISA, coated peptide
row,OD 490/630 nm,Binder
1,1.87,B1
2,1.88,B2
3,1.85,B3
4,1.81,B4
5,1.89,B5

# Biological target: T10, Ala mutant of TA0096, SEQ ID NO: 29
# Assay: ELISA, coated peptide
row,OD 490/630 nm,Binder
1,2.05,B1
2,1.91,B2
3,1.95,B3
4,1.92,B4
5,1.94,B5

# Biological target: T11, Ala mutant of TA0096, SEQ ID NO: 40
# Assay: ELISA, coated peptide
row,OD 490/630 nm,Binder
1,1.85,B1
2,1.89,B2
3,1.86,B3
4,1.82,B4
5,1.88,B5

# Biological target: T12, TA0096 (peptide antigen corresponding …)
# Assay: ELISA, coated peptide
row,OD 490/630 nm,Binder
1,1.81,B1
2,1.88,B2
3,1.87,B3
4,1.79,B4
5,1.85,B5

# Biological target: T13, Ala mutant of TA0096, SEQ ID NO: 28
# Assay: ELISA, coated peptide
row,OD 490/630 nm,Binder
1,2,B1
2,1.94,B2
3,1.99,B3
4,2,B4
5,1.96,B5

# Biological target: T14, Ala mutant of TA0096, SEQ ID NO: 36
# Assay: ELISA, coated peptide
row,OD 490/630 nm,Binder
1,1.91,B1
2,1.92,B2
3,1.85,B3
4,1.9,B4
5,1.87,B5

# Biological target: T15, Ala mutant having 3-amino acid …
# Assay: ELISA, coated peptide
row,OD 490/630 nm,Binder
1,1.98,B1
2,1.9,B2
3,1.92,B3
4,1.9,B4
5,1.92,B5

# Biological target: T16, Ala mutant having 3-amino acid …
# Assay: ELISA, coated peptide
row,OD 490/630 nm,Binder
1,0.039,B1
2,0.065,B2
3,0.018,B3
4,0.022,B4
5,0.019,B5

# Biological target: T17, Ala mutant of TA0096, SEQ ID NO: 37
# Assay: ELISA, coated peptide
row,OD 490/630 nm,Binder
1,1.8,B1
2,1.88,B2
3,1.85,B3
4,1.2,B4
5,1.88,B5

# Biological target: T18, Ala mutant of TA0096, SEQ ID NO: 31
# Assay: ELISA, coated peptide
row,OD 490/630 nm,Binder
1,1.67,B1
2,1.85,B2
3,1.77,B3
4,1.38,B4
5,1.48,B5

# Biological target: T1, Ala mutant of TA0096, SEQ ID NO: 34
# Assay: ELISA, coated peptide
row,OD 490/630 nm,Binder
1,0.021,B1
2,0.04,B2
3,0.042,B3
4,0.047,B4
5,0.038,B5

# Biological target: T19, Ala mutant of TA0096, SEQ ID NO: 27
# Assay: ELISA, coated peptide
row,OD 490/630 nm,Binder
1,1.95,B1
2,1.96,B2
3,1.91,B3
4,1.89,B4
5,1.93,B5

# Biological target: T20, Ala mutant having 3-amino acid …
# Assay: ELISA, coated peptide
row,OD 490/630 nm,Binder
1,1.89,B1
2,1.86,B2
3,1.88,B3
4,1.85,B4
5,1.92,B5

# Biological target: T21, Ala mutant of TA0096, SEQ ID NO: 33
# Assay: ELISA, coated peptide
row,OD 490/630 nm,Binder
1,2.09,B1
2,1.98,B2
3,1.98,B3
4,1.93,B4
5,1.98,B5

# Biological target: T22, Ala mutant of TA0096, SEQ ID NO: 35
# Assay: ELISA, coated peptide
row,OD 490/630 nm,Binder
1,0.023,B1
2,0.233,B2
3,0.015,B3
4,0.017,B4
5,0.253,B5

# Biological target: T23, full-length recombinant human PAD4
# Assay: ELISA, coated human PAD4; antibody 0.015625 ug/mL
row,OD 490/630 nm,Binder
1,2.08,B1
2,2.08,B2
3,2.01,B3
4,2.08,B4
5,2.07,B5

# Biological target: T23, full-length recombinant human PAD4
# Assay: ELISA, coated human PAD4; antibody 6.104E-05 ug/mL
row,OD 490/630 nm,Binder
1,0.063,B1
2,0.1,B2
3,0.075,B3
4,0.07,B4
5,0.082,B5

# Biological target: T24, full-length recombinant mouse PAD4 (mouse, UniProt Q9Z183 1-666)
# T24 construct: mature; Full-length recombinant
# Assay: ELISA, coated mouse PAD4; antibody 0.0625 ug/mL
# T24 sequence (Q9Z183 whole entry): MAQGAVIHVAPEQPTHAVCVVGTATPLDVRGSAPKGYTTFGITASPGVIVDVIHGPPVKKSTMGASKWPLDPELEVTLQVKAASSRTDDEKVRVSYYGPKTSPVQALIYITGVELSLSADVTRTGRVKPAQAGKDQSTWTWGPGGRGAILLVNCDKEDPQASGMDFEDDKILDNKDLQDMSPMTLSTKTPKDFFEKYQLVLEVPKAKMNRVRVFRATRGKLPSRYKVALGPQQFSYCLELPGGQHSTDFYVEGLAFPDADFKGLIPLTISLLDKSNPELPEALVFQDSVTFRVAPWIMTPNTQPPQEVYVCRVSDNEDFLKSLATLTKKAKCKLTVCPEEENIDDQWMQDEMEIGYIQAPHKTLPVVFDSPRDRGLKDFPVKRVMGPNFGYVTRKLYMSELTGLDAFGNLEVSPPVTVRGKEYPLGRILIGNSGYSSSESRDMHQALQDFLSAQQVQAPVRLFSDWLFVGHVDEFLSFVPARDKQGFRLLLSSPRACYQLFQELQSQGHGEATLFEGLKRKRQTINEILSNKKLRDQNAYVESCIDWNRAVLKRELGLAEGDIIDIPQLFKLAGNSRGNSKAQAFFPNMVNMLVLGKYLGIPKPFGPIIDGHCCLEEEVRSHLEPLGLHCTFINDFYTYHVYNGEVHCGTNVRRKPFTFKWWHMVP
row,OD 490/630 nm,Binder
1,2.24,B1
2,2.22,B2
3,2.16,B3
4,2.19,B4
5,2.24,B5

# From patent US20180044434A1 (PUBLIC UNIVERSITY CORPORATION YOKOHAMA CITY UNIVERSITY, published 2018)
